Source: patent US20240092867A1 (UNIVERSITY OF CHICAGO, published 2024)

Experiments:
[1] = molecular target: T1, human plasma-derived vWF (human, UniProt P04275 764-2813); assay: SPR, vWF immobilised, GF flowed, heterogeneous ligand-parallel reactions fit
T1 construct: mature; also called plasma-derived purified vWF; von Willebrand factor
Description: (§1) A450 nm represents absorbance at 450 nm. Signals from VEGF-A121 served as a baseline, and bovine serum albumin (BSA) served as a negative control (n=4, mean±SD). […] Experimental curves were fitted with (C) 1:1 Langmuir fit model and (D) heterogeneous ligand-parallel reactions binding.
(§2) SPR assays were performed as described previously2. In brief, measurements were made with a Biacore X100 SPR system or Biacore 3000 SPR system (GE Healthcare). […] Recombinant human VEGF-A165, VEGF-A121, or PDGF-BB was flowed at increasing concentrations in the running buffer at 30 μL/min. The sensor chip was regenerated with glycine at pH 2 for every cycle.

[2] = molecular target: T2, recombinant laminin α3 2928-3150 protein (linker domain and LG4 domain) (human, UniProt Q16787 2928-3150); assay: SPR; α3 2928-3150 recombinant protein immobilised (~1000 RU), PDGF-BB flowed at 0.325-41.6 nM; Langmuir fit [panel D]
T2 construct: range 2928-3150; Made in HEK-293F cells; also called laminin alpha 3 LG domain recombinant protein
T2 sequence: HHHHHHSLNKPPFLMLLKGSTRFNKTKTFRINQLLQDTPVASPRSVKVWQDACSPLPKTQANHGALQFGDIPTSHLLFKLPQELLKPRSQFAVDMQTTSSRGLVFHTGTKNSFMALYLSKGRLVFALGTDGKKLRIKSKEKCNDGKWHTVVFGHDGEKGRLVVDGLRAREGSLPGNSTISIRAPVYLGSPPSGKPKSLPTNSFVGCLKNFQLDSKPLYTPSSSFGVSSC
Text: (§3) Statistical analyses were done using the Mann-Whitney U test by comparing the signals obtained from the laminin domain- and the BSA-coated wells. *p<0.05, **p<0.01. […] A SPR chip was functionalized with the laminin α3₂₉₂₈₋₃₁₅₀ recombinant protein (˜1000 RU), and each GF was flowed over the chip at indicated concentrations. Curves represent the specific responses (in RU) to laminin. Experimental curves were fitted with Langmuir binding kinetics.
(§4) Because the GFs that bound to laminins have also been previously reported to bind to other ECM glycoproteins through HBDs, it was hypothesized that HBDs of laminins might be responsible for the interactions between GFs and laminin. To address this hypothesis, ELISA assays were repeated for VEGF-A165, PlGF-2 or FGF-2 in the presence of heparin added in excess (10 μM). […] To further confirm this, the inventors tested direct GF binding to the LG domains from human laminin α3, α4 and α5, within which HBDs of laminin were localized.
(§5) SPR analysis was performed as described previously². In brief, measurements were made with a Biacore 3000 SPR system (GE Healthcare). […] VEGF-A165, PDGF-BB, or PlGF-2 was flowed at increasing concentrations in the running buffer at 20 μL/min. The sensor chip was regenerated with 50 mM NaOH for every cycle.

[3] = molecular target: T2, recombinant laminin α3 2928-3150 …; assay: SPR, α3 2928-3150 immobilised, GF flowed, Langmuir fit
Description: as §3, with “Affinity of GFs against recombinant laminin LG domains. ELISA plates were coated with 1 μg/mL (A) α3₂₉₂₈₋₃₁₅₀, (B) α4₈₂₆₋₁₈₁₆, or (C) α5₃₀₂₆₋₃₄₈₂ and further incubated with 1 μg/mL of VEGF-A165, VEGF-A121, PlGF-2, PlGF-1, PDGF-BB, or FGF-2 solution. Bound GFs were detected using a specific antibody for each GF (n=4, mean±SEM). Statistical” for “Statistical”
as §4
SPR analysis was performed as described previously². […]

[4] = molecular target: T1, human plasma-derived vWF; assay: SPR; plasma-derived vWF immobilised (~2000 RU), PDGF-BB flowed at 25-200 nM; heterogeneous ligand-parallel reactions fit, site 2 [panel D]
Description: as §1, §2

[5] = molecular target: T1, human plasma-derived vWF; assay: SPR; plasma-derived vWF immobilised (~2000 RU), PDGF-BB flowed at 25-200 nM; heterogeneous ligand-parallel reactions fit, site 1 [panel D]
Description: as §1, §2

[6] = molecular target: T3, laminin-521 (human, UniProt O15230 36-3695; P55268 33-1798; P11047 34-1609); assay: SPR; laminin-521 immobilised on the chip (~2000 RU), PDGF-BB flowed at 25-200 nM; Langmuir fit
T3 construct: Full-length recombinant human laminin isoform (BioLamina); chains read from the isoform name
Description: (§6) A450 nm represents absorbance at 450 nm. BSA-coated wells served as negative controls (n=4, mean±SEM). Signals greater than 0.1 (grey box) are considered to be significant. […] Experimental curves were fitted with Langmuir binding kinetics.
(§7) The obtained binding curves were fitted with Langmuir binding kinetics to calculate specific dissociation constants (KD) (FIG. 1B).
as §5, with “cycle. Specific bindings of GFs to laminin were calculated by comparison to a non-functionalized channel used as a reference. Experimental results were fitted with Langmuir binding kinetics using BIAevaluation software (GE Healthcare).” for “cycle.”

[7] = molecular target: T3, laminin-521; assay: SPR, laminin-521 immobilised, GF flowed, Langmuir fit
Description: as §6, §7
as §5, with “cycle. Specific bindings of GFs to laminin were calculated by comparison to a non-functionalized channel used as a reference. Experimental results were fitted with Langmuir binding kinetics using BIAevaluation software (GE Healthcare).” for “cycle.”

[8] = molecular target: T4, laminin-111 (human, UniProt P25391 18-3075; P07942 22-1786; P11047 34-1609); assay: ELISA, GF coated, laminin 10 nM
T4 construct: Full-length recombinant human laminin isoform (BioLamina); Chain composition is read from the isoform name

[9] = molecular target: T5, laminin-211 (human, UniProt P24043 23-3122; P07942 22-1786; P11047 34-1609); assay: ELISA, GF coated, laminin 10 nM
T5 construct: Full-length recombinant human laminin isoform (BioLamina); chains read from the isoform name

[10] = molecular target: T6, laminin-411 (human, UniProt Q16363 25-1823; P07942 22-1786; P11047 34-1609); assay: ELISA, GF coated, laminin 10 nM
T6 construct: Full-length recombinant human laminin isoform (BioLamina); chains read from the isoform name

[11] = molecular target: T7, laminin-421 (human, UniProt Q16363 25-1823; P55268 33-1798; P11047 34-1609); assay: ELISA, GF coated, laminin 10 nM
T7 construct: Full-length recombinant human laminin isoform (BioLamina); chains read from the isoform name

[12] = molecular target: T2, recombinant laminin α3 2928-3150 …; assay: ELISA, LG domain protein coated, GF 1 µg/mL
Description: as §3, with “Affinity of GFs against recombinant laminin LG domains. ELISA plates were coated with 1 μg/mL (A) α3₂₉₂₈₋₃₁₅₀, (B) α4₈₂₆₋₁₈₁₆, or (C) α5₃₀₂₆₋₃₄₈₂ and further incubated with 1 μg/mL of VEGF-A165, VEGF-A121, PlGF-2, PlGF-1, PDGF-BB, or FGF-2 solution. Bound GFs were detected using a specific antibody for each GF (n=4, mean±SEM). Statistical” for “Statistical”
ELISA tests were performed as described above. […] 1 μg/mL of BSA served as non-binding protein control. After blocking with 2% BSA PBS-0.05% Tween 20 (PBS-T) solution, 1 μg/mL of the recombinant human proteins (VEGF-A121, VEGF-A165, PlGF-1, PlGF-2, PDGF-BB or FGF-2) or 10 μg/mL of biotinylated heparin (Sigma-Aldrich) were added. Bound GF was detected with biotinylated antibodies for human VEGF, PlGF, PDGF-BB, or FGF-2 (R&D Systems). The antibodies were detected by streptavidin-HRP (R&D Systems).

[13] = molecular target: T3, laminin-521; assay: SPR; laminin-521 immobilised on the chip (~2000 RU), PlGF-2 flowed at 20-75 nM; Langmuir fit
Description: as §6, §7
as §5, with “cycle. Specific bindings of GFs to laminin were calculated by comparison to a non-functionalized channel used as a reference. Experimental results were fitted with Langmuir binding kinetics using BIAevaluation software (GE Healthcare).” for “cycle.”

[14] = molecular target: T8, recombinant human vWF A1 domain (human, UniProt P04275 1261-1468, limits assumed); assay: ELISA, A1 domain coated, GF 1 µg/mL
T8 construct: domain: A1; also called vWF A1 recombinant protein; recombinant A1 domain
Description: ELISA tests were performed as described above. […] After blocking with 2% BSA solution containing PBS-T, 1 μg/mL of the recombinant human proteins VEGF-A121, VEGF-A165, PlGF-1, PlGF-2, PDGF-BB, FGF-2, CXCL-12α and CXCL-12γ were added. 1 μg/mL of BSA served as non-binding protein control. Bound GF or chemokine was detected with biotinylated antibodies for human VEGF-A, PlGF, PDGF-BB, FGF-2, or CXCL-12 (R & D Systems). The antibodies were detected by streptavidin-HRP (R & D Systems). Color development and the absorbance measurement were done as described above.

[15] = molecular target: T4, laminin-111; assay: ELISA; plate coated with 10 µg/mL laminin, 1 µg/mL PlGF-2 in solution without or with 10 µM heparin, bound GF detected with antibody [panel B]
Description: (§8) FIGS. 2A-C. […] ELISA plates were coated with 10 μg/mL laminin and further incubated with a 1 μg/mL (A) VEGF-A165, (B) PlGF-2, or (C) FGF-2 solution in the absence or presence of excess (10 μM) heparin. Bound GFs were detected using a specific antibody for each GF (n=4, mean±SEM). Statistical analyses were done using the Mann-Whitney U test by comparing the signals with and without heparin. *p<0.05, **p<0.01.
as §4

[16] = molecular target: T5, laminin-211; assay: as above
Description: as §8, §4

[17] = molecular target: T6, laminin-411; assay: as above
Description: as §8, §4

[18] = molecular target: T7, laminin-421; assay: as above
Description: as §8, §4

[19] = molecular target: T1, human plasma-derived vWF; assay: ELISA, GF coated 50 nM, vWF 1 µg/mL

T7 sequence (Q16363 25-1823 limits assumed, chain 1 of 3): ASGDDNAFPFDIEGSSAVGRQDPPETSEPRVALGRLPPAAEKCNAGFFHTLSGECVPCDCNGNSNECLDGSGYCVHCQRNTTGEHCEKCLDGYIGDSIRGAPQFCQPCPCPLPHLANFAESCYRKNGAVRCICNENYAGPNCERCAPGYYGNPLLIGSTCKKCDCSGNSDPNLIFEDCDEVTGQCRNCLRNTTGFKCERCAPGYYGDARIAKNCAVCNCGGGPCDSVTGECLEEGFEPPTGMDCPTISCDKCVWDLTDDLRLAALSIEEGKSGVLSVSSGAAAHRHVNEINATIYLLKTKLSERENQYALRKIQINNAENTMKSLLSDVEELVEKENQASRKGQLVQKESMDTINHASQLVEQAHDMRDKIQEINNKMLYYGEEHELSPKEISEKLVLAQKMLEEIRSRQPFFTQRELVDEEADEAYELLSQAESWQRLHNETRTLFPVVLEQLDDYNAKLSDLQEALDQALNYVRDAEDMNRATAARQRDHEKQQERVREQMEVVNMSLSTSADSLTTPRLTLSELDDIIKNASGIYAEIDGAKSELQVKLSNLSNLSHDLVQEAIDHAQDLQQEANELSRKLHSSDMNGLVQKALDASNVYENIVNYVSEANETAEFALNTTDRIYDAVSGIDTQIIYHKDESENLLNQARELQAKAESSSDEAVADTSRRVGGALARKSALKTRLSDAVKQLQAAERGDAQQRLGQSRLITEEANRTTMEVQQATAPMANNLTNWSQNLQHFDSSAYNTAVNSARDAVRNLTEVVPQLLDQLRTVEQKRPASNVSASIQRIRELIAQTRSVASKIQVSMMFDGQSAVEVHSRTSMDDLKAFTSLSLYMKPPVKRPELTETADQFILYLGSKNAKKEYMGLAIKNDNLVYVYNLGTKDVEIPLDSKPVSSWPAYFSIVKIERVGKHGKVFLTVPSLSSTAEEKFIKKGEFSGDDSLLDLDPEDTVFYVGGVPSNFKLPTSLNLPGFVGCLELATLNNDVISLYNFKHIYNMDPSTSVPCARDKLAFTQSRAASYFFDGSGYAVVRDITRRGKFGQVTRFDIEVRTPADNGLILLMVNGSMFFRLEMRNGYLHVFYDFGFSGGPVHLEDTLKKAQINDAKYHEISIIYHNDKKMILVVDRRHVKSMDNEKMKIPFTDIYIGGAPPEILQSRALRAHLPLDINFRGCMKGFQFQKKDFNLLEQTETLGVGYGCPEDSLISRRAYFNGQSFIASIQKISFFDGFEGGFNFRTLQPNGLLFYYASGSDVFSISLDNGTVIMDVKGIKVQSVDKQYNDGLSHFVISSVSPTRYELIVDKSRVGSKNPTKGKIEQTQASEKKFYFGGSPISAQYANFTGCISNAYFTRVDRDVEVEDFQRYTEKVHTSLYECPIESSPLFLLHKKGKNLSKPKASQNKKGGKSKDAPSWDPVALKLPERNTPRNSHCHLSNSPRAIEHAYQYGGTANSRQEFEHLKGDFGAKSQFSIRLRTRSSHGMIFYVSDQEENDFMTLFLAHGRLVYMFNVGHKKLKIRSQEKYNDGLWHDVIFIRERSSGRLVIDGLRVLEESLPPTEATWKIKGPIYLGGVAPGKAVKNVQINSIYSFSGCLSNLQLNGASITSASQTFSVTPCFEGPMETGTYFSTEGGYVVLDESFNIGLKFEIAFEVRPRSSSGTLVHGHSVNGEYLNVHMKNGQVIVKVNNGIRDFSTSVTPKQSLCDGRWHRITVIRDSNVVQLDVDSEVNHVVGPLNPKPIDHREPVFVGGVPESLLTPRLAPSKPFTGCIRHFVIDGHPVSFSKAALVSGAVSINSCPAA
T7 sequence (P55268 33-1798 limits assumed, chain 2 of 3): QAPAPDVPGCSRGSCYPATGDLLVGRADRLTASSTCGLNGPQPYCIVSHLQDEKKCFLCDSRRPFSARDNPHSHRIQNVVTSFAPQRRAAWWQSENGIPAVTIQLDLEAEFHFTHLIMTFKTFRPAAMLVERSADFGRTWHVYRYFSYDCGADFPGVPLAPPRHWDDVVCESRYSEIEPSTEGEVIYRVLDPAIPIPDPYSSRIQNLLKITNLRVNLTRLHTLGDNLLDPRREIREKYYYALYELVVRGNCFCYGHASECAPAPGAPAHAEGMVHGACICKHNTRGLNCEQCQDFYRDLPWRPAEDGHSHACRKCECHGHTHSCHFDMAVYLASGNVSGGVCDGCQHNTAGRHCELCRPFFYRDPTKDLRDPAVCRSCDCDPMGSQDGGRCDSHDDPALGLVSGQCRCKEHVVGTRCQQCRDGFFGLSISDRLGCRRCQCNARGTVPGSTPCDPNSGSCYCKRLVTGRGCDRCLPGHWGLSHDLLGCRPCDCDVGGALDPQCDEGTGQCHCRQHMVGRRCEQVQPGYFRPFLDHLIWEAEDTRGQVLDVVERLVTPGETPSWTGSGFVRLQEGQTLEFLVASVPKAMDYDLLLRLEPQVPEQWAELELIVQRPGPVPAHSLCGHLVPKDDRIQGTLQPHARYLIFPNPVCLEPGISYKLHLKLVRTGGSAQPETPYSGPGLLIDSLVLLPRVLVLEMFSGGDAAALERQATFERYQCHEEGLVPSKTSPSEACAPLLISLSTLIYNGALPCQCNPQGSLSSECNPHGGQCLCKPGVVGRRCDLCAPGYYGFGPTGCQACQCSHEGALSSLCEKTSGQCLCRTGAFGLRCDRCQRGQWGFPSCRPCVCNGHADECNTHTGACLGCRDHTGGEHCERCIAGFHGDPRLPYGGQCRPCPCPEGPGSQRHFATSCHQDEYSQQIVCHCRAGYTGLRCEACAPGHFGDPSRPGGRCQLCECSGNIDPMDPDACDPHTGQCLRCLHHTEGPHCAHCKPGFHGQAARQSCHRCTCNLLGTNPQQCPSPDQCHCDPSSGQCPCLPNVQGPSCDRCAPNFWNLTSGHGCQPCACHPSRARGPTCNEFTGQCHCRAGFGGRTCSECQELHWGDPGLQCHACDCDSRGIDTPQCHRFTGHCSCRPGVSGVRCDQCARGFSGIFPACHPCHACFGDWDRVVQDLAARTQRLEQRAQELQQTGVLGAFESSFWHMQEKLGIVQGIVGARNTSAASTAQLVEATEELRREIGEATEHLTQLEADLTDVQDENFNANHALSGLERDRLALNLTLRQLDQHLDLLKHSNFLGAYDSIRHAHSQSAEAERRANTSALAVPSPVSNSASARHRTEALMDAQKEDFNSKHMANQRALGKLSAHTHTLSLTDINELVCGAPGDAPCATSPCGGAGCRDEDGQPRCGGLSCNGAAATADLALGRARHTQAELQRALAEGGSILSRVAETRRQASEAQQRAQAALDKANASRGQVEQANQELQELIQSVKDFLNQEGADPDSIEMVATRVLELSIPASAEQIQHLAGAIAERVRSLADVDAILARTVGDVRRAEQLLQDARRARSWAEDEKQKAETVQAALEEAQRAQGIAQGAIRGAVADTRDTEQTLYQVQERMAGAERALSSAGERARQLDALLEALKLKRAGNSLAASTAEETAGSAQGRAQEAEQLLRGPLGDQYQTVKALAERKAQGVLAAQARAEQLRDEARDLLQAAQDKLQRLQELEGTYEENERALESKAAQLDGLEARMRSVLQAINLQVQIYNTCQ
T7 sequence (P11047 34-1609 limits assumed, chain 3 of 3): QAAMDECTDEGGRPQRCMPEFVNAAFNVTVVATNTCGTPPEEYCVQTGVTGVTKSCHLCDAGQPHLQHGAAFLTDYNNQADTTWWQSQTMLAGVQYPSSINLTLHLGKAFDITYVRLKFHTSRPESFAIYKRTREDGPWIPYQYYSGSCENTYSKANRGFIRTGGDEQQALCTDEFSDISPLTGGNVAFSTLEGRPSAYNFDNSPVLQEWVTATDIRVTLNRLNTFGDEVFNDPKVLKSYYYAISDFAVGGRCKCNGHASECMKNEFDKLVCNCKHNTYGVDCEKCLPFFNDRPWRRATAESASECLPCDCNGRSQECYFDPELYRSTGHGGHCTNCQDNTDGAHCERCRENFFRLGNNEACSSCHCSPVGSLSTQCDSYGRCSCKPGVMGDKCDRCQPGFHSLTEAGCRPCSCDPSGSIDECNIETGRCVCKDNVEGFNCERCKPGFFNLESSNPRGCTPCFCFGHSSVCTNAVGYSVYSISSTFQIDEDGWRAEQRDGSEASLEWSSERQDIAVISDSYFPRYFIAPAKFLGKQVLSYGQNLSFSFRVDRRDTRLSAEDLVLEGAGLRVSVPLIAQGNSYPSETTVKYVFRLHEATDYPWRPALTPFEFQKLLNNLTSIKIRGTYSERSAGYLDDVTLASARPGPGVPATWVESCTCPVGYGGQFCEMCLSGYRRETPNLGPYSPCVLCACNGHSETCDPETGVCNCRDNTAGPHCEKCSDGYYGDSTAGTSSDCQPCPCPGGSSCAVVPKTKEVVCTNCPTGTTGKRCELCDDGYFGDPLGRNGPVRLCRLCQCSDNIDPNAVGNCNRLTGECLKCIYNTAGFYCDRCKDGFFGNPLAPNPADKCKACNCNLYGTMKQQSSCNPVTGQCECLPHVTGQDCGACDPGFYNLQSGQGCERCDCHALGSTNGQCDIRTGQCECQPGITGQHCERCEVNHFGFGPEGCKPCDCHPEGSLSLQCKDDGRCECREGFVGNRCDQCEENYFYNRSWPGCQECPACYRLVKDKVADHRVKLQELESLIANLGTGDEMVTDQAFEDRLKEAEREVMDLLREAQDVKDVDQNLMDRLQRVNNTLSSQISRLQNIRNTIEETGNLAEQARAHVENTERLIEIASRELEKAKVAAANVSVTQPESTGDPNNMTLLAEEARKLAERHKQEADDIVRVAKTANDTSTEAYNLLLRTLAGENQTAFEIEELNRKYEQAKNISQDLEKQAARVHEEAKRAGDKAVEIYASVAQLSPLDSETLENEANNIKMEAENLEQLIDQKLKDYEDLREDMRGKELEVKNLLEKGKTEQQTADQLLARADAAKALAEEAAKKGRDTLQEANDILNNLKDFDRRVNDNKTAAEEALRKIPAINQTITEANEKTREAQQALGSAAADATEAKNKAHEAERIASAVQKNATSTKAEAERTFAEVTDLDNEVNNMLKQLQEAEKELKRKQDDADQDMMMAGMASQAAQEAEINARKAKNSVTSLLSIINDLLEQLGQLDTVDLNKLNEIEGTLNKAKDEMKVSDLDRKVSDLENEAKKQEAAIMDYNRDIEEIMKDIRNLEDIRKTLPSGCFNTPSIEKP

B1: platelet-derived growth factor (PDGF)-BB (ligand, human, UniProt P01127 82-190, looked up)
chain: SLGSLTIAEPAMIAECKTRTEVFEISRRLIDRTNANFLVWPPCVEVQRCSGCCNNRNVQCRPTQVQLRPVQVRKIEIVRKKPIFKKATVTLEDHLACKCETVAAARPVT
notes: mature; Purchased in mature form
- Kd [1]: 24 nM
- Kd [2]: 12.1 nM
- koff [2]: 0.0136 s⁻¹
- kon [2]: 1.12e+06 M⁻¹ s⁻¹
- Kd [3]: 10.2 nM
- Kd [4]: 23.8 nM
- koff [4]: 0.00508 s⁻¹
- kon [4]: 213000 M⁻¹ s⁻¹
- Kd [5]: 154 nM
- koff [5]: 0.0664 s⁻¹
- kon [5]: 430000 M⁻¹ s⁻¹
- koff [6]: 0.00497 s⁻¹
- kon [6]: 206000 M⁻¹ s⁻¹
- Kd [7]: 24.2 nM
- binding result [8]: binds
- binding result [9]: binds
- binding result [10]: binds
- binding result [11]: binds

B2: placental growth factor (PlGF)-2 (ligand, human, UniProt P49763-3 19-170, looked up)
chain: LPAVPPQQWALSAGNGSSEVEVVPFQEVWGRSYCRALERLVDVVSEYPSEVEHMFSPSCVSLLRCTGCCGDENLHCVPVETANVTMQLLKIRSGDRPSYVELTFSQHVRCECRPLREKMKPERRRPKGRGKRRREKQRPTDCHLCGDAVPRR
notes: as for B1
- binding result [12]: binds
- koff [13]: 0.0246 s⁻¹
- kon [13]: 1.91e+06 M⁻¹ s⁻¹
- binding result [14]: binds
- binding result [15]: binds
- binding result [16]: binds
- binding result [17]: binds
- binding result [18]: binds
- Kd [7]: 12.9 nM
- binding result [19]: binds
